In patent US20150030603A1 (SAMSUNG ELECTRONICS, published 2015):

Assays:
[1] = target: T1, recombinant hAng-2 (C-His, R&D Systems) (human, UniProt O15123 19-496); assay: cell-based or functional assay
T1 sequence: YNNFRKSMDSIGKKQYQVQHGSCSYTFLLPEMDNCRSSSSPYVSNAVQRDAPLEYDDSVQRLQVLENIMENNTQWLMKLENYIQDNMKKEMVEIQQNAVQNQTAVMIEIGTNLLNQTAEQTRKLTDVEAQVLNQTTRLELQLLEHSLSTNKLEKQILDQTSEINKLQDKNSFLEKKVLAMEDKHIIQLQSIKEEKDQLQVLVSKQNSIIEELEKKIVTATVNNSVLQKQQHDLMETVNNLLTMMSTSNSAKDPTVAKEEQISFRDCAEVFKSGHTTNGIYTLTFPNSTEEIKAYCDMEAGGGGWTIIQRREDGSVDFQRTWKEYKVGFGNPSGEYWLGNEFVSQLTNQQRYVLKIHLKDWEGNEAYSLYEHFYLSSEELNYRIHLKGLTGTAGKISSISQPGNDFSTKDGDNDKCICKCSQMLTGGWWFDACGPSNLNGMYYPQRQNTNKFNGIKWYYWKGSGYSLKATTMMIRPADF

[2] = target: FLAG-tagged Ang2 RBD mutant at A449 (substituted with alanine (so in the source)) (human) (UniProt O15123); assay: ELISA; 10D6 coated (1000 nM), 250 ng FLAG-tagged Ang2 RBD mutant, anti-FLAG-HRP, OD450; reference native Ang2; cell may be cut off at the left
[3] = target: FLAG-tagged Ang2 RBD mutant Q418A (human) (UniProt O15123); assay: as above
[4] = target: FLAG-tagged Ang2 RBD mutant P419A (human) (UniProt O15123); assay: as above
BSA = target: T2, BSA (bovine, UniProt P02769); assay: ELISA: coated BSA, FLAG-Ang2 0.25 µg/ml and 10D6 2 µg/ml, detected with anti-mouse IgG-HRP (OD450)
T2 construct: commercial preparation (Sigma); named on the sheet under 'Coating:'; also called bovine serum albumin (Sigma); control coating
Experimental: A 96-well MaxiSorp™ flat-bottom plate (Nunc) was coated with 4 μg/ml of Tie2-Fc (R&D systems) or BSA (Sigma). Then, the plate was washed five times with 0.05% (v/v) Tween-20-containing PBS (Phosphate Buffer Saline) and blocked with 1% (v/v) BSA (Bovine serum albumin; Sigma)-containing PBS at a room temperature for 2 hours. 0.25 μg/ml of Ang2 and 2 μg/ml of 10D6 antibody were added to each well of the plate, which was allowed to react at a room temperature for 2 hours and then washed five times with PBST. After that, an anti-mouse IgG antibody (Sigma) conjugated with HRP diluted in 1% (v/v) BSA-containing PBS at a ratio of 1:5,000 (v/v) was added in an amount of 100 ul to each well to react at a room temperature for 1 hour and then, the plate was washed five times with PBST. Lastly, 100 ul (microliter) of TMB substrate (Cell Signaling) was added to each well of the plate to induce color development for 3 min. and then, the reaction was ceased by the addition of 100 ul of Stop solution (Cell Signaling) and OD450 values were measured on a plate reader (Molecular Devices).

T2 sequence (P02769 25-607 limits assumed): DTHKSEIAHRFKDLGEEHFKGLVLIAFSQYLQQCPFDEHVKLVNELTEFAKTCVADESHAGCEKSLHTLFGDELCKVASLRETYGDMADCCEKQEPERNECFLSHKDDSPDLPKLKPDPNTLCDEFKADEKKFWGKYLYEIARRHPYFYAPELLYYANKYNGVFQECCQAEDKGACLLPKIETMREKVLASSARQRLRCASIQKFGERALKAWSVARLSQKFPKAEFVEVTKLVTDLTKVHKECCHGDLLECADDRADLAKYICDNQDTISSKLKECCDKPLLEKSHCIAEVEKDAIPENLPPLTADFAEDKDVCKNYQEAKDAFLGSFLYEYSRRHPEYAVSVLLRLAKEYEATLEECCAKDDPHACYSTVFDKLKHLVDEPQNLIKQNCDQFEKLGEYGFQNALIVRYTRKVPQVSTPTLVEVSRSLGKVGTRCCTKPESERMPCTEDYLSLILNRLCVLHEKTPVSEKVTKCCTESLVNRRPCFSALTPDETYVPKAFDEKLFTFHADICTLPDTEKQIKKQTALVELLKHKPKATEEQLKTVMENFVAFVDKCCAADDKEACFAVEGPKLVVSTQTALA

B1: SAIT-ANG2-AB-m10D6 (antibody, V domains shown)
VH: DVQLQESGPGLVKPSQSLSLTCTVTGYSITSDYAWNWIRQFPGNKLEWMGYINYSGNTDYNPSLKSRSSITRDTSKNQFFLQLNSVTTGDTATYYCARGNFEGAMDYWGQGTSVTVSS
VL: SIVMTQTPKFLLVSAGDRVTITCKASQSVSNDVAWYQQKPGQSPKLLIYYASNRYPGVPDRFTGSGYGTDFTFTISTVQAEDLAVYFCQQDYSSPWTFGGGTKLEIK
B1 was tested, and the “Tie2 phosphorylation effect against the control antibody RG” value [1] was roughly 8.6 fold against RG antibody, the “Tie2 phosphorylation level (pTyr/Tie2 ratio) in HUVEC cells, 60 nM antibody with Ang2” value [1] was 180 % increase against Ang2 alone and the binding affinity (%) with mutant Ang2 against the binding affinity with the native Ang2 [2] was 7.86%. For the same binder, the binding affinity (%) with mutant Ang2 against the binding affinity with the native Ang2 [3] was 8.94% and the binding affinity (%) with mutant Ang2 against the binding affinity with the native Ang2 [4] was 1.08%.

B2: FLAG-tagged hAng-2 (ligand)
chain: YNNFRKSMDSIGKKQYQVQHGSCSYTFLLPEMDNCRSSSSPYVSNAVQRDAPLEYDDSVQRLQVLENIMENNTQWLMKLENYIQDNMKKEMVEIQQNAVQNQTAVMIEIGTNLLNQTAEQTRKLTDVEAQVLNQTTRLELQLLEHSLSTNKLEKQILDQTSEINKLQDKNSFLEKKVLAMEDKHIIQLQSIKEEKDQLQVLVSKQNSIIEELEKKIVTATVNNSVLQKQQHDLMETVNNLLTMMSTSNSAKDPTVAKEEQISFRDCAEVFKSGHTTNGIYTLTFPNSTEEIKAYCDMEAGGGGWTIIQRREDGSVDFQRTWKEYKVGFGNPSGEYWLGNEFVSQLTNQQRYVLKIHLKDWEGNEAYSLYEHFYLSSEELNYRIHLKGLTGTAGKISSISQPGNDFSTKDGDNDKCICKCSQMLTGGWWFDACGPSNLNGMYYPQRQNTNKFNGIKWYYWKGSGYSLKATTMMIRPADF
notes: not shown: FLAG tag
B2: no binding (tested: 0.25 µg/ml) (BSA).
